Patent US20230250170A1 (Regeneron, published 2023)
Changes are numbered by the printed parent chain.

T1: pig NPR1 extracellular domain expressed with a C-terminal myc-myc-hexahistidine (pig)
T1 chain: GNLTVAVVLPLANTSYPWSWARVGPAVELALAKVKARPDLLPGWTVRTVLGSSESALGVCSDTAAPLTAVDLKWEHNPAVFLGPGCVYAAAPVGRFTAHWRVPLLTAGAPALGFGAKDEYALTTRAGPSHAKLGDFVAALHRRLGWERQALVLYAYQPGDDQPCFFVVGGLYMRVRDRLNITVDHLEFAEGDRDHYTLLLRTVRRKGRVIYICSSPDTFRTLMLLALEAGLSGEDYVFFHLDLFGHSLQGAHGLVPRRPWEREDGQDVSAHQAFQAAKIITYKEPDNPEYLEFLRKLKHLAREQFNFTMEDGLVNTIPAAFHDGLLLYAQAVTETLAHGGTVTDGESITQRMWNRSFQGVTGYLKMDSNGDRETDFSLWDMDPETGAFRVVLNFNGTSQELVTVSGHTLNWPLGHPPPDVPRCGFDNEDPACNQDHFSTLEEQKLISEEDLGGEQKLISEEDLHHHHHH

T2: dog NPR1 extracellular domain expressed with a C-terminal myc-myc-hexahistidine (dog)
T2 chain: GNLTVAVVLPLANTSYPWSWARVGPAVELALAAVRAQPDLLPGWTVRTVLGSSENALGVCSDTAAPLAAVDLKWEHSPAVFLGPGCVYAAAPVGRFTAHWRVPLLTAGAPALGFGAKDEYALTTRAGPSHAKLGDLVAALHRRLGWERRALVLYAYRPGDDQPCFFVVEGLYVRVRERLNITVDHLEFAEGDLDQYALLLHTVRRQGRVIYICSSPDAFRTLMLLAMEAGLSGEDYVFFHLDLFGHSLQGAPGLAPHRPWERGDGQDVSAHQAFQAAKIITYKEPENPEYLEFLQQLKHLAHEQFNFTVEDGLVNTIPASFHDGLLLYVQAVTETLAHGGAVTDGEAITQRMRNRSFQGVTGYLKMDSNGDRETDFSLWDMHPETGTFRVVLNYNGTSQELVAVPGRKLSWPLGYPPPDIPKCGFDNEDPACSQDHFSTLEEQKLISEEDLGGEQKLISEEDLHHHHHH

B1: H4H22034 (antibody, human IgG4 S228P, kappa, V domains shown)
VH: EVQLLESGGDLVQPGGSLRLSCAASGFTFSDYAMIWVRQTPGKGLEWVSGISGGGGSTDYADSVKGRFTTSRDNVKNAMYLQMNSLRTEDTAVYYCAREDQLPSYHNYYGMDVWGQGTTVTVSS
VL: DIQMTQSPSSVSASVGDRVTITCRASQGINNYLAWFQQKPGKAPKSLIYGASSLQSGVPSKFSGSRSGIDFTLTISSLQPEDFATYYCQQYNSYPYTFGQGTKLEIKR
notes: also called H4H22034N; mAb22034
B2: REGN7541 (antibody, human IgG4 S228P, kappa, V domains shown)
VH: EVQLVESGGGLVQPGGSLRLSCAASGFTFSSYAMSWVRQAPGKGLEWVSTISGSGTNTYYADSVKGRFTISNDNSKNTLYLQMNSLRAEDTAVYYCANYDILTGHSFEYWGQGTLVTVSS
VL: AIQMTQSPSSLSASVGDRVTITCRASQGIRNDLGWYQQKPGKAPELLIYAASRLPSGVPLRFSGSGSGTDFTLTISSLQPEDVATYYCLQDYNYPFTFGPGTKVDIKR
notes: also called mAb38067
B3: REGN7544 (antibody, human IgG4 S228P, kappa, V domains shown)
VH: EVQLVESGGGLVQPGGSLRLSCAASGFSFVSYVMGWVRQAPGKGLEWVSSISGSLTNTYYADPVKGRFTISRDNSKNTLYLQMNSLRAEDTAAYYCVTYDILTGHLFDYWGQGTLVTVSS
VL: B2 VL with A25S, L33F, E45K, P55Q, L60S, S76N, S77N, V83F, N93T
notes: also called mAb38072
B4: REGN7548 (antibody, human IgG4 S228P, kappa, V domains shown)
VH: QVQLVQSGAEVKKPGASVKVSCKASGYTFTSYYIHWVRQAPGQGLEWMGIISPSDGYTSYAQNFQGRVTMTRDTSTNTVYMDLSSLRSEDTAMFYCARNDPLTTVALDYWGQGTLVTVSS
VL: AIQMTQSPSSLSASVGDRVTITCRASQGIRYDLGWFQQKPGKAPKLLIHAASSLQSGVPSRFSGSGSGTDFTLTISSLQPEDFATYYCLQDYNYPFTFGQGTKLEIKR
notes: also called mAb38090

Target: T1, pig NPR1 extracellular domain expressed …
Assay: SPR Biacore 8K, mAb captured via anti-hFc, 25 C
Description: (§1) The equilibrium dissociation constant (KD) for different NPR1 reagents binding to purified anti-NPR1 monoclonal antibodies (mAbs) were determined using a real-time surface plasmon resonance (SPR) based Biacore 8k biosensor. All binding studies were performed in 10 mM HEPES, 150 mM NaCl, 3 mM EDTA, and 0.05% v/v Surfactant P20, pH 7.4 (HBS-EP) running buffer at 25° C. and 37° C. The Biacore CM5 sensor chip surface was first derivatized by amine coupling with anti-human Fc specific antibody to capture anti-NPR1 mAbs. Binding studies were performed on human NPR1 extracellular domain expressed with a C-terminal myc-myc-hexahistidine (hNPR1-MMH; SEQ ID NO:74), monkey NPR1 extracellular domain expressed with a C-terminal myc-myc-hexahistidine (mfNPR1-MMH; SEQ ID NO:75), mouse NPR1 extracellular domain expressed with a C-terminal myc-myc-hexahistidine (mNPR1-MMH; SEQ ID NO:76), dog NPR1 extracellular domain expressed with a C-terminal myc-myc-hexahistidine (dog_NPR1-MMH; SEQ ID NO:77), pig NPR1 extracellular domain expressed with a C-terminal myc-myc-hexahistidine (pig_NPR1-MMH; SEQ ID NO:78), and hNPR1-MMH+10×hANP.
(§2) Different concentrations (40 nM-0.625 nM, 4-fold serial dilutions) of hNPR1-MMH, mfNPR1-MMH, hNPR1-MMH in the presence of 10-fold concentration of hANP, or a fixed concentration (40 nM) of mNPR1-MMH, dog_NPR1-MMH, pig_NPR1-MMH were prepared in HBS-EP running buffer, and then injected for 150 sec at a flow rate of 30 μL/min, while the dissociation of mAb bound different NPR1 reagents was monitored for 30 minutes in HBS-EP running buffer. At the end of each cycle, the anti-NPR1 mAb capture surface was regenerated using a 12 sec injection of 10 mM phosphoric acid. The association rate (ka) and dissociation rate (kd) were determined by fitting the real-time binding sensorgrams to a 1:1 binding model with mass transport limitation using Biacore insight evaluation software. Binding dissociation equilibrium constant (KD) and dissociative half-life (t½) were calculated from the kinetic rates as: […]

| Binder | 40 nM Ag Bound (RU) | Kd [nM] | koff [s⁻¹] | kon [M⁻¹ s⁻¹] | t½ [min] |
| --- | --- | --- | --- | --- | --- |
| B1 | 0 |  |  |  |  |
| B2 | 0 |  |  |  |  |
| B3 | 2 | 122 | 0.00679 | 55800 | 1.7 |
| B4 | 11 | 35.8 | 0.00427 | 119000 | 2.7 |

target: T3, mouse NPR1 extracellular domain expressed with a C-terminal myc-myc-hexahistidine (mouse, UniProt P18293 29-469); assay: SPR Biacore 8K, mAb captured via anti-hFc, 25 C
T3 construct: also called mNPR1-MMH
Description: as §1, §2

| Binder | 40 nM Ag Bound (RU) | binding result |
| --- | --- | --- |
| B1 | 0 | no binding (tested: 40 nM) |
| B2 | 0 | no binding (tested: 40 nM) |
| B3 | 0 | no binding (tested: 40 nM) |
| B4 | 0 | no binding (tested: 40 nM) |

Target: T2, dog NPR1 extracellular domain expressed …
Assay: SPR Biacore 8K, mAb captured via anti-hFc, 25 C
Description: as §1, §2

| Binder | 40 nM Ag Bound (RU) | binding result |
| --- | --- | --- |
| B1 | 0 | no binding (tested: 40 nM) |
| B2 | 0 | no binding (tested: 40 nM) |
| B3 | 0 | no binding (tested: 40 nM) |
| B4 | 0 | no binding (tested: 40 nM) |

Target: T1, pig NPR1 extracellular domain expressed …
Assay: SPR Biacore 8K, mAb captured via anti-hFc, 37 C
Description: as §1, §2

| Binder | 40 nM Ag Bound (RU) | binding result | Kd [nM] | koff [s⁻¹] | kon [M⁻¹ s⁻¹] | t½ [min] |
| --- | --- | --- | --- | --- | --- | --- |
| B1 | 0 | no binding (tested: 40 nM) |  |  |  |  |
| B2 | 0 | no binding (tested: 40 nM) |  |  |  |  |
| B3 | 5 |  | 98.1 | 0.00947 | 96500 | 1.2 |
| B4 | 14 |  | 42.1 | 0.00927 | 220000 | 1.2 |

target: T3, mouse NPR1 extracellular domain …; assay: SPR Biacore 8K, mAb captured via anti-hFc, 37 C
Description: as §1, §2
Target sequence in this assay (P18293 other isoform, or with tags, fused parts or gaps): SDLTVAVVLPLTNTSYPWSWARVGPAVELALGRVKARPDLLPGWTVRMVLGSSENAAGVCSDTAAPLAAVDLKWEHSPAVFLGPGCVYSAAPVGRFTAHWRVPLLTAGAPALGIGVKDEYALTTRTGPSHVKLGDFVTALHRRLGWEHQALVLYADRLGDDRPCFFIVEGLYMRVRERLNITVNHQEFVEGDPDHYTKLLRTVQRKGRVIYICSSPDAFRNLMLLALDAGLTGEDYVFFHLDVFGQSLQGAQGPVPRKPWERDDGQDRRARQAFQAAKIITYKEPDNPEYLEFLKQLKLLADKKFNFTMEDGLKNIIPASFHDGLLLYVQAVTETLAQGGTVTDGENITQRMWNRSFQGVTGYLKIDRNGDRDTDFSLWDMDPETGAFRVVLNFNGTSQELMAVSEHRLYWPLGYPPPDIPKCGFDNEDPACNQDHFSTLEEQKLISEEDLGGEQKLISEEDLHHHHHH

| Binder | 40 nM Ag Bound (RU) |
| --- | --- |
| B1 | 0 |
| B2 | 0 |
| B3 | 0 |
| B4 | 0 |

Target: T2, dog NPR1 extracellular domain expressed …
Assay: SPR Biacore 8K, mAb captured via anti-hFc, 37 C
Description: as §1, §2

| Binder | 40 nM Ag Bound (RU) |
| --- | --- |
| B1 | 0 |
| B2 | 0 |
| B3 | 0 |
| B4 | 0 |

target: T4, monkey NPR1 on HEK293/mfNPR1 cells in the presence of 10 nM hANP (monkey (Macaca fascicularis); human); assay: ECL cell-binding immunoassay (MSD), HEK293/mfNPR1, +10 nM hANP
T4 construct: also called HEK293/mfNPR1 +10 nM hANP
Description: (§3) Cultures of the cell lines described above were rinsed once in 1×PBS buffer without Ca²⁺/Mg²⁺ and incubated for 10 minutes at 37° C. with Enzyme Free Cell Dissociation Solution to detach cells from the flask. The collected cell pellets were washed once with and resuspended in 1×PBS with Ca²⁺/Mg²⁺ and then cells were counted with a Cellometer™ Auto T4 cell counter (Nexcelom Bioscience, Lawrence, Mass.). Approximately 2.0×10⁴ cells per well were seeded onto 96-well carbon electrode plates (Meso Scale Diagnostics, Rockville, Md.) and incubated for 1 hour at 37° C. Nonspecific binding sites were blocked using 2% BSA (w/v) in 1×PBS containing Ca²⁺/Mg²⁺ for 1 h at room temperature. Subsequently, HEK293/hNPR1 and HEK293/mfNPR1 cells were incubated for 0.5 hour at room temperature with 10 nM hANP (Tocris, Minneapolis, Minn.), 100 nM hBNP (Tocris, Minneapolis, Minn.), or sample dilution buffer alone, while HEK293 cells were treated with sample dilution buffer only. Without washing, serial dilutions of anti-NPR1, Comparator 1 or the isotype control antibody, ranging from 1.7 pM to 100 nM, or buffer containing no antibody were added to the cells followed by 1 hour incubation at room temperature. Plates were then washed to remove unbound antibodies, hANP, and hBNP using an AquaMax2000 plate washer with a cell washing head (MDS Analytical Technologies, Sunnyvale, Calif.). The plate-bound antibodies were detected with a SULFO-TAG™-conjugated polyclonal goat anti-human IgG antibody specific for heavy and light chains (Jackson Immunoresearch, West Grove, Pa.) that was incubated with the cells for 1 hour at room temperature.
(§4) After washes, plates were developed with Read Buffer (Meso Scale Diagnostics, Rockville, Md.) according to manufacturer's recommended procedure and luminescent signals were recorded with a SECTOR Imager 600 (Meso Scale Diagnostics, Rockville, Md.). The binding signals in a unit of RLU were analyzed as a function of the antibody concentration and data were fitted with a sigmoidal (four-parameter logistic) dose-response model using R statistical package (open source).

T4 sequence (P01160 124-151): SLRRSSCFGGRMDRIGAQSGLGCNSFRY

| Binder | EC50 [nM] |
| --- | --- |
| B1 | 0.67 |
| B2 | 2.9 |
| B3 | 4.2 |
| B4 | 1.2 |

target: T5, monkey NPR1 on HEK293/mfNPR1 cells in the presence of 100 nM hBNP (monkey (Macaca fascicularis); human); assay: ECL cell-binding immunoassay (MSD), HEK293/mfNPR1, +100 nM hBNP
T5 construct: also called HEK293/mfNPR1 +100 nM hBNP
Description: as §3, §4

T5 sequence (P16860 103-134): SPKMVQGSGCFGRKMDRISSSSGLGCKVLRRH

| Binder | EC50 [nM] |
| --- | --- |
| B1 | 0.42 |
| B2 | 0.92 |
| B3 | 1.7 |
| B4 | 0.56 |

target: T6, monkey (Macaca fascicularis) NPR1 on HEK293/mfNPR1 cells (monkey (Macaca fascicularis)); assay: ECL cell-binding immunoassay (MSD), HEK293/mfNPR1, no ligand added
T6 construct: whole, on cells; No ligand added
Description: as §3, §4

| Binder | EC50 [nM] |
| --- | --- |
| B1 | 0.33 |
| B2 | 1.4 |
| B3 | 1.7 |
| B4 | 0.56 |
